Laboratory results as given in article PMC13022382 (Nature Communications, 2026).
Primed or numbered codes have the meaning given here. No end group written: not given here. *: point of attachment. TMR‑6COOH = tetramethylrhodamine, CN(C)c1ccc2c(-c3cc(C(=O)*)ccc3C(=O)[O-])c3ccc(N(C)C)cc3[o+]c2c1; Biotin = O=C1N[C@H]2[C@H](CS[C@H]2CCCCC(=O)*)N1; PEG2′ = Fmoc-PEG2-OH spacer; PEG4′ = not defined here

Assays:
TMR-Hpep11 conjugate = target: T1, TMR-Hpep11 conjugate; experiment: fluorescence polarisation
T1 peptide: {TMR‑6COOH-PEG2′}-SKRDWREMFRLFRT

TMR-Hpep9 conjugate = target: T2, TMR-Hpep9 conjugate; experiment: fluorescence polarisation
T2 peptide: {TMR‑6COOH-PEG2′}-RGWSWREMFRLFRT

biotin-Hpep9 conjugate = target: T3, biotin-Hpep9 conjugate; experiment: BLI
T3 chain: {Biotin-PEG4′}-RGWSWREMFRLFRT

biotin-Hpep11 conjugate = target: T4, biotin-Hpep11 conjugate; experiment: BLI
T4 chain: {Biotin-PEG4′}-SKRDWREMFRLFRT

B1: cpHaloΔ2 (His10-tagged) (domain or fragment)
chain: DVGRKLIIDQNVFIEGTLPMGVVRPLTEEEMDHYREPFLNPKDREPLWRFPNELPIAGEPANIVALVEEYMDWLHQSPVPKLLFWGTPGVLIPPAEAARLAKSLPNCKAVDIGPGLNLLQEDNPDLIGSEIARWLSTLEIKSKYDRDQILKIIAELEKKTGGSIGTGFPFDPHYVEVLGSRMHYVDVGPRDGTPVLFLHGNPTSSYVWRNIIPHVAPTHRCIAPDLIGMGKSDKPDLGYFFDDHVRFMDAFIEALGLEEVVLVIHDWGSALGFHWAKRHPERVKGIAFMEFIRPIPTWDEW
TMR-Hpep11 conjugate
  Kd: 38.3 nM
TMR-Hpep9 conjugate
  Kd: 26.3 nM

B2: TMR-labeled cpHaloΔ3 (domain or fragment)
chain: EKKGDVGRKLIIDQNVFIEGTLPMGVVRPLTEEEMDHYREPFLNPKDREPLWRFPNELPIAGEPANIVALVEEYMDWLHQSPVPKLLFWGTPGVLIPPAEAARLAKSLPNCKAVDIGPGLNLLQEDNPDLIGSEIARWLSTLEIKSKYDRDQILKIIAELEKKTGGSIGTGFPFDPHYVEVLGSRMHYVDVGPRDGTPVLFLHGNPTSSYVWRNIIPHVAPTHRCIAPDLIGMGKSDKPDLGYFFDDHVRFMDAFIEALGLEEVVLVIHDWGSALGFHWAKRHPERVKGIAFMEFIRPIPTWDEWGDVE
modifications: labeled with the HaloTag ligand CA-TMR (chloroalkane derivative of tetramethylrhodamine)
biotin-Hpep9 conjugate
  Kd: 4.86 nM
  koff: 0.00104 s⁻¹
  kon: 214000 M⁻¹ s⁻¹
biotin-Hpep11 conjugate
  Kd: 10.6 nM
  koff: 0.000687 s⁻¹
  kon: 64900 M⁻¹ s⁻¹

B3: SiR-labeled cpHaloΔ3 (domain or fragment)
chain: EKKGDVGRKLIIDQNVFIEGTLPMGVVRPLTEEEMDHYREPFLNPKDREPLWRFPNELPIAGEPANIVALVEEYMDWLHQSPVPKLLFWGTPGVLIPPAEAARLAKSLPNCKAVDIGPGLNLLQEDNPDLIGSEIARWLSTLEIKSKYDRDQILKIIAELEKKTGGSIGTGFPFDPHYVEVLGSRMHYVDVGPRDGTPVLFLHGNPTSSYVWRNIIPHVAPTHRCIAPDLIGMGKSDKPDLGYFFDDHVRFMDAFIEALGLEEVVLVIHDWGSALGFHWAKRHPERVKGIAFMEFIRPIPTWDEWGDVE
modifications: labeled with the HaloTag ligand CA-SiR (chloroalkane derivative of silicon rhodamine)
TMR-Hpep11 conjugate
  Kd: 1.34 nM
TMR-Hpep9 conjugate
  Kd: 3.26 nM
biotin-Hpep9 conjugate
  Kd: 18.8 nM
  koff: 0.00149 s⁻¹
  kon: 78900 M⁻¹ s⁻¹
biotin-Hpep11 conjugate
  kon: 50000 M⁻¹ s⁻¹
